# Source: IntAct's records for PubMed 11375976
# Molecular target: TERF1, P54274-2
# Sequence (P54274 other isoform, or with tags, fused parts or gaps): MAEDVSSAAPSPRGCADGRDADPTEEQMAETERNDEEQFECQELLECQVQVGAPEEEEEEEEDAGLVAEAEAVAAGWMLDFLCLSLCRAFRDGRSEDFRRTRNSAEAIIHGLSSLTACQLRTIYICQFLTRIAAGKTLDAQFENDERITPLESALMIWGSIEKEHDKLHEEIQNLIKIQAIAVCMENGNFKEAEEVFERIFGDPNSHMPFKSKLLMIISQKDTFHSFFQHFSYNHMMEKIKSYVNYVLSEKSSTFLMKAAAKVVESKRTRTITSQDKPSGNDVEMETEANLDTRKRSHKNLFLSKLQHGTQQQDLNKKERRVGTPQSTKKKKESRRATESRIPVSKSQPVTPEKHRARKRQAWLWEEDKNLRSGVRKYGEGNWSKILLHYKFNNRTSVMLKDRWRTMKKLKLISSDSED
substance,measurement,value
"Serine-protein kinase ATM (Homo sapiens), Q13315 D2870A;N2875K",effect of a mutation on the interaction,disrupting interaction
